Experiments:
[1] = biological target: Petrotoga mobilis esterase (PmEst) (Petrotoga mobilis); assay: SEC; Superdex 200 10/300 GL column, calibrated with carbonic anhydrase, ovalbumin, bovine serum albumin, conalbumin and aldolase; purified PmEst in aqueous solution
[2] = substrate: CC(=O)Oc1ccc([N+](=O)[O-])cc1; assay: purified protein; format: biochemical, Petrotoga mobilis; conditions: 10 mM sodium phosphate pH 7.4, 500 nM enzyme, acetonitrile from substrate stock, temperature of the kinetics not stated
[3] = substrate: CCCC(=O)Oc1ccc([N+](=O)[O-])cc1; assay: purified protein; format: biochemical, Petrotoga mobilis; conditions: 10 mM sodium phosphate pH 7.4, 500 nM enzyme, acetonitrile from substrate stock, temperature of the kinetics not stated

Row | Molecule | stoichiometry N [1] | Km [2] | kcat [2] | kcat/Km [2] | Km [3] | kcat [3] | kcat/Km [3]
1 | Petrotoga mobilis esterase (PmEst) (enzyme) | 3 | – | – | – | – | – | –
2 | PmEst (Petrotoga mobilis SJ95) (protein, synthetic gene, modified pET28a, N-terminal His6-SUMO fusion cut by SUMO protease; E. coli Rosetta (DE3); PFAM PF00756 esterase) MALLEVNFMSRSLMRKVPIMVVLPMDKANLSGKSEITDNDNNTFKTLYLLHGIFGNYSDWVSETRIQRLAEGRNLAVVMPSGENSFYLDQPESGNFYGEFIGRELVNITRKMFPLSRKKEDTFIAGLSMGGYGAIRNGLKYHETFGCVAGLSSALNFEQMLDESYQVIACKKSAFGDPKEAILSDKNPKVLVKNIKENPLGQFPKMYMACGTEDNLINSNRDFRDFLIENNVDLTYEEGPGAHTWEFWDTYIEKVLDWLPLKKPS | – | 1430 ± 170 µM | 29.2 ± 1.2 s⁻¹ | 20500 ± 1600 M⁻¹ s⁻¹ | 160 ± 10 µM | 14.1 ± 0.29 s⁻¹ | 88100 ± 6000 M⁻¹ s⁻¹

Reference: article PMC4924860, “Environmental Factors Modulating the Stability and Enzymatic Activity of the Petrotoga mobilis Esterase (PmEst)” (PLoS ONE, 2016)
